{"source": "paper PMC12554751", "about": "(Frontiers in Immunology, 2025)", "binders": {"B1": {"name": "97A34 tagged with Digoxigenin (antibody, V domains shown)", "VH": "EVQLVESGGGLVQPGGSLRLSCAASGYNIKATYIHWVRQAPGKGLEWVARIYPASGATRYADSVKGRFTISADTSKNTAYLQMNSLRAEDTAVYYCARDGYDGSYFVGYDYNDFYDYWGQGTLVTVSS", "VL": "DIQMTQSPSSLSASVGDRVTITCRASQNVAYAVTWYQQKPGKAPKLLIYSASFLYSGVPSRFSGSRSGTDFTLTISSLQPEDFATYYCQQHSTYPPTFGQGTKVEIK", "notes": "heavy chain constant region; light chain constant region; Detected with a Human-on-Human HRP-Polymer kit through mouse anti-Digoxigenin; I surmise the human IgG1 kappa form"}}, "molecular_target": "T1, Aβ aggregates in human Alzheimer's disease brain (Homo sapiens (endogenous, Alzheimer's …, UniProt P05067))", "T1 construct": "Aβ peptide of the amyloid precursor protein, aggregated in patient brain; also called Alzheimer's brain lysates; Aβ plaques; source: endogenous, human Alzheimer's disease brain (hippocampus homogenates; paraffin-embedded frontal cortex sections)", "test": "immunostaining of cells or tissue; immunohistochemistry of paraffin-embedded frontal cortex of Alzheimer's disease patients with moderate cerebral amyloid angiopathy; Digoxigenin-tagged antibody applied 1 h; HRP polymer, DAB", "details": "one partner purified", "data": [{"binder": "B1", "values": [{"measurement": "binding result", "value": "binds"}]}]}
